From patent publication US20170066831A1 (Janssen / Centocor, published 2017)

Experiments:
[1] = biological target: T1, human ST2L, full length, on cells (human, UniProt Q01638 19-556); experiment: cell-based or functional assay
T1 sequence: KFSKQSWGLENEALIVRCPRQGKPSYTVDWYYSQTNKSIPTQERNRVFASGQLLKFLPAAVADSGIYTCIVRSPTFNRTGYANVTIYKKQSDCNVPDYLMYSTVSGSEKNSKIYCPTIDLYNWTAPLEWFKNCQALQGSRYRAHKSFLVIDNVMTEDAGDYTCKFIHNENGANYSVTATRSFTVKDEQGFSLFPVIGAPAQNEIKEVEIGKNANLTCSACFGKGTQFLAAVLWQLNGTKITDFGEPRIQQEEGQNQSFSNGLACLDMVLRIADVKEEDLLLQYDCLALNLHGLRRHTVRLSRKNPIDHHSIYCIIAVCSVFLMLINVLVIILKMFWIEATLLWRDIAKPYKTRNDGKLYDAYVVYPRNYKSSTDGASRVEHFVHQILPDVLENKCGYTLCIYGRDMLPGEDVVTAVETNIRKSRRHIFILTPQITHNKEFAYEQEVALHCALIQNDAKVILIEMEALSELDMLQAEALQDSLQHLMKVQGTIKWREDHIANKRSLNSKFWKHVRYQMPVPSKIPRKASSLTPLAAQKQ

[2] = biological target: T2, HH-ST2L (human ST2L Domains I and II), wild type (human, UniProt Q01638 19-205); experiment: SPR, ProteOn XPR36, 25 C; mAb captured on anti-Fc surface, ST2L-D1D2 (HH-ST2L) protein injected; 1:1 model
T2 construct: also called ST2L-D1D2
T2 sequence: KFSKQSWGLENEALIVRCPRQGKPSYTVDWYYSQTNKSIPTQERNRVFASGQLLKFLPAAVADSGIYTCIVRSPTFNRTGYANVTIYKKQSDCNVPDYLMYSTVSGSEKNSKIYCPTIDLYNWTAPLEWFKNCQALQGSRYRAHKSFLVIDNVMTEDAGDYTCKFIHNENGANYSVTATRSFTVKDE
Experimental: (§1) Binding studies were performed using the ProteOn XPR36 Protein Interaction Array system (Bio-Rad) (Bravman T, et al. Anal Biochem 358:281-288, 2006). […] Individual anti-ST2L mAb was then captured by flowing (1 μg/mL) antibody solution prepared in PBS containing 0.5% Nonidet P-40 and 0.5% Na-deoxycholate). The signal in the surfaces reached ˜250 resonance units (RU, 1 RU=1 pg protein/mm²) in the anti-Fc-coated surfaces, confirming that these antibodies specifically capture anti-ST2L mAbs. After 90° rotation of the fluid system, wild type of ST2L-D1D2 or variant proteins (0.5 mg/mL in PBS containing 0.5% Nonidet P-40 and 0.5% Na-deoxycholate) was injected in the parallel flow channels. All of these assays were performed at 25° C. The ST2L-D1D2-dependent signals on the surfaces were obtained by double referencing, subtracting the response observed on surfaces immobilizing the antibodies alone, and the signal observed injecting the vehicle alone (which allows correction for binding-independent responses). The resulting sensorgrams were fitted by the simplest 1:1 interaction model (ProteOn analysis software), to obtain the corresponding association and dissociation rate constants (kₐ and kd).

E61K = biological target: T3, E61K; experiment: SPR, ProteOn XPR36, 25 C; mAb captured on anti-Fc surface, ST2L-D1D2 (HH-ST2L) variant injected; 1:1 model
T3 construct: also called HH-ST2L (ST2L-D1D2) variant E61K
T3 receptor fragment (Domains I and II): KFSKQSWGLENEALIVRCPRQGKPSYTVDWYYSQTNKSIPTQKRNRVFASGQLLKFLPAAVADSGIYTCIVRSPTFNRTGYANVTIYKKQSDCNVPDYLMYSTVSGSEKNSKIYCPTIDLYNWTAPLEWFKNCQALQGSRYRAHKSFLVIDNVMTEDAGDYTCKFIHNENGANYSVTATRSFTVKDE
Experimental: as §1

69GQL71-->RDR = biological target: T4, 69GQL71-->RDR; experiment: as above
T4 construct: also called HH-ST2L (ST2L-D1D2) variant with 69GQL71 changed to RDR
T4 receptor fragment (Domains I and II): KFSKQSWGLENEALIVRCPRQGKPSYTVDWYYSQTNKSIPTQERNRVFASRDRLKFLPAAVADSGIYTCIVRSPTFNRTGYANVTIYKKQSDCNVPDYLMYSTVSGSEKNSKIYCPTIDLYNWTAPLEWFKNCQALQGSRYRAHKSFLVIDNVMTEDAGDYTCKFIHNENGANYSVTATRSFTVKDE
Experimental: as §1

108QSD110-->PPS = biological target: T5, 108QSD110-->PPS; experiment: as above
T5 receptor fragment (Domains I and II): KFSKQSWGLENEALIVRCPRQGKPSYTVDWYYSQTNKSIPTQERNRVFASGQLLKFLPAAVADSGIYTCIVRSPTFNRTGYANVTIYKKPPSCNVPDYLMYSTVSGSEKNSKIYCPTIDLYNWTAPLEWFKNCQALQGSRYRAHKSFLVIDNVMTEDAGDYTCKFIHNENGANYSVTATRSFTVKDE
Experimental: as §1

[3] = biological target: T6, HH-ST2L variant 93NL94 (substitution 93TF94 to 93NL94) (human, UniProt Q01638 19-205); experiment: as above
T6 chain: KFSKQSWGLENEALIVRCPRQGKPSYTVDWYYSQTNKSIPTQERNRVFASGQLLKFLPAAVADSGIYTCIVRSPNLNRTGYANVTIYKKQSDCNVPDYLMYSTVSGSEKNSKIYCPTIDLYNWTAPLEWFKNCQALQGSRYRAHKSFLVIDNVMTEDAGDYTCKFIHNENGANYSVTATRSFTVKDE
Experimental: as §1

B1: STLM208 (antibody, V domains shown)
VH: EVQLLESGGGLVQPGGSLRLSCAASGFTFSIYDMIWVRQAPGKGLEWVSSIRGEGGGTYYADSVKGRFTISRDNSKNTLYLQMNSLRAEDTAVYYCARDPWSTEGSFFVLDYWGQGTLVTVSS
VL: EIVLTQSPATLSLSPGERATLSCRASQSVDDDLAWYQQKPGQAPRLLIYDASNRATGIPARFSGSGSGTDFTLTISSLEPEDFAVYYCQQYITAPLTFGQGTKVEIK
notes: frameworks VH3-23 / Vk-L6
RGA IC50 [1]: 0.61 µg/mL | koff [2]: 0.000122 s⁻¹ | kon [2]: 1.14e+07 M⁻¹ s⁻¹ | Kd (E61K): 8.1 pM | koff (E61K): 0.000126 s⁻¹ | kon (E61K): 1.55e+07 M⁻¹ s⁻¹ | Kd (69GQL71-->RDR): 9.6 pM | koff (69GQL71-->RDR): 9.27e-05 s⁻¹ | kon (69GQL71-->RDR): 1.02e+07 M⁻¹ s⁻¹ | Kd (108QSD110-->PPS): 10 pM | koff (108QSD110-->PPS): 0.000119 s⁻¹ | kon (108QSD110-->PPS): 1.28e+07 M⁻¹ s⁻¹ | koff [3]: 0.000625 s⁻¹ | kon [3]: 1.27e+07 M⁻¹ s⁻¹
